Read-outs that look alike come from different tables or passages of the source. Blank lines part the entries; values can stand above or below the binder they belong to. Non-standard residues stand in square brackets, D forms with d. No end group written: not given here. Abu = CC[C@H](N)C(=O)O
Key:
HLA-B*5101 [1] = target: HLA-B*5101 (human); test: competition vs 125I probe peptide, purified HLA
HLA-B*0702 [2] = target: HLA-B*0702 (human); test: 125I-probe peptide inhibition, purified HLA
HLA-B*5401 [3] = target: HLA-B*5401 (human); test: 125I-probe peptide inhibition, purified HLA
HLA-A*6801 = HLA-A*6801 (human); test: 125I-probe peptide inhibition, purified HLA
HLA-B*5301 [4] = target: HLA-B*5301 (human); test: 125I-probe peptide inhibition, purified HLA
HLA-B*5101 [5] = target: HLA-B*5101 (human); test: 125I-probe peptide inhibition, purified HLA
HLA-A*0206 [6] = target: HLA-A*0206 (human); test: 125I-probe peptide inhibition, purified HLA
HLA-A*0206 [7] = target: HLA-A*0206 (human); test: 125I-probe peptide inhibition, purified HLA; remark: listed apart in the source
HLA-A*0203 = HLA-A*0203 (human); test: 125I-probe peptide inhibition, purified HLA
HLA-B*3501 = HLA-B*3501 (human); test: 125I-probe peptide inhibition, purified HLA
HLA-A*2402 = HLA-A*2402 (human); test: competition vs 125I probe peptide, purified HLA
HLA-B*5301 [8] = target: HLA-B*5301 (human); test: competition vs 125I probe peptide, purified HLA
HLA-B*5401 [9] = target: HLA-B*5401 (human); test: competition vs 125I probe peptide, purified HLA
HLA-B*0702 [10] = target: HLA-B*0702 (human); test: competition vs 125I probe peptide, purified HLA

Binder: FPAPAAPTPAA [p53.74.F1 (11-mer)]
IC50 (HLA-B*0702 [2]): 87 nM
IC50 (HLA-B*5401 [3]): 2.1 nM

Binder: FPAAPTPAA [p53.76.F1 (9-mer)]
IC50 (HLA-B*5301 [4]): 620 nM
IC50 (HLA-B*5101 [5]): 809 nM
IC50 (HLA-B*5401 [3]): 1 nM

Binder: FPRMPEAAPPI [p53.63.F1111]
IC50 (HLA-B*5301 [4]): 5470 nM
IC50 (HLA-B*5401 [3]): 2.9 nM

Binder: FPRMPEAAPPV [p53.63F1]
IC50 (HLA-B*5401 [3]): 0.3 nM

Binder: FPTPAAPI [p53.79.F118]
IC50 (HLA-B*0702 [2]): 90 nM
IC50 (HLA-B*5301 [4]): 6200 nM
IC50 (HLA-B*5401 [3]): 7.7 nM

Binder: [Abu]QLAKT[Abu]PV [p53.135B1B7]
IC50 (HLA-A*0206 [6]): 67 nM

Binder: FPAPAPSWPI [p53.84.F1110]
IC50 (HLA-B*5401 [3]): 1.2 nM

Binder: FPAPAPSWPL [p53.84.F1]
IC50 (HLA-B*3501): 5.1 nM
IC50 (HLA-B*5401 [3]): 1.7 nM

Binder: FPLPSQAI [p53.33.F1]
IC50 (HLA-B*5301 [4]): 291 nM
IC50 (HLA-B*3501): 720 nM
IC50 (HLA-B*5401 [3]): 83 nM

Binder: FPAPAAPTPA [p53.74.F1 (10-mer)]
IC50 (HLA-B*0702 [2]): 0.8 nM
IC50 (HLA-B*3501): 28 nM
IC50 (HLA-B*5401 [3]): 1.1 nM

Binder: FPAPSWPI [p53.86.F118]
IC50 (HLA-B*0702 [2]): 120 nM
IC50 (HLA-B*5301 [4]): 3.3 nM
IC50 (HLA-B*3501): 4.8 nM
IC50 (HLA-B*5401 [3]): 1.6 nM

Binder: FPPVAPAPAI [p53.70.F1110]
IC50 (HLA-B*0702 [2]): 290 nM
IC50 (HLA-B*5401 [3]): 63 nM

Binder: FPAAPTPAAPA [p53.76.F1 (11-mer)]
IC50 (HLA-B*0702 [2]): 34 nM
IC50 (HLA-B*5401 [3]): 1.3 nM

Binder: FPILTIITI [p53.249.F1I9]
IC50 (HLA-B*0702 [10]): 74 nM
IC50 (HLA-B*5301 [8]): 4 nM
IC50 (HLA-B*5401 [9]): 1.8 nM
IC50 (HLA-B*5101 [1]): 9 nM

More lines, now with the values ahead:

IC50 (HLA-B*5101 [1]): 220 nM
Binder: FPALNKMI [p53.127.F1I8]

IC50 (HLA-A*6801): 140 nM
Binder: SS[Abu]MGGMNK [p53.240 (9-mer SSBMGGMNK)]

IC50 (HLA-A*0206 [7]): 64 nM
IC50 (HLA-A*0203): 7.7 nM
Binder: [Abu]LLAKT[Abu]PV [p53.135B1L2B7]

IC50 (HLA-A*2402): 30 nM
Binder: TYQGSYGFRF [p53.102.F10]

IC50 (HLA-B*5301 [4]): 4 nM
IC50 (HLA-B*3501): 3.1 nM
IC50 (HLA-B*5401 [3]): 9.1 nM
Binder: FPAPSWPL [p53.86.F1]

IC50 (HLA-B*5301 [8]): 93 nM
IC50 (HLA-B*5401 [9]): 0.3 nM
Binder: FPSWPLSSSV [p53.88.F1]

IC50 (HLA-B*5301 [4]): 8.5 nM
IC50 (HLA-B*5401 [3]): 2.4 nM
Binder: FPSWPLSSSI [p53.88.F1110]

IC50 (HLA-B*0702 [10]): 6.5 nM
IC50 (HLA-B*5401 [9]): 5 nM
Binder: FPILTIITL [p53.249.F1]

Source: patent US20040048790A1 (published 2004)
